Here are results for 1 molecule from patent US20220267422A1.

In this experiment the target is doppel (Prnd) recombinant protein immobilized on the SPR sensor chip. Nature of the experiment: SPR, BIAcore T100, recombinant protein immobilized on chip. Background: SPR reads the build-up and loss of mass on a sensor chip optically.
Sequence of doppel (Prnd) recombinant protein immobilized on the SPR sensor chip (Q9UKY0 26-152): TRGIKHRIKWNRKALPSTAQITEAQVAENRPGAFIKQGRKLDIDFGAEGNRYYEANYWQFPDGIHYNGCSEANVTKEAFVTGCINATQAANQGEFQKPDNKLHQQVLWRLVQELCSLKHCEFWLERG

B1: Human monoclonal antibody 3D1 (antibody, human IgG1, kappa, V domains shown)
VH: EVQLVESGGGLVQPGGSLRLSCAASGFTFSDYAMSWVRQAPGKGLEWVSRISGSGGTKYYADSVKGRFTISRDNSKNTLYLQMNSLRAEDTAVYYCAKHQVYWALDVWGQGTLVTVSS
VL: DIQMTQSPSSLSASVGDRVTITCRASQSISNWLNWYQQKPGKAPKLLIYATSSLQSGVPSRFSGSGSGTDFTLTISSLQPEDFATYYCQQSYSYPWTFGQGTKVEIKR
The term Kd denotes the equilibrium constant for the complex coming apart. As to B1, the Kd is 0.308 nM.
